For the series, the target named is T1, RNAP alpha subunit C-terminal domain (alphaCTD, symmetry-related) (Mycobacterium smegmatis (mc2155), UniProt A0QSL8 251-350).
T1 sequence: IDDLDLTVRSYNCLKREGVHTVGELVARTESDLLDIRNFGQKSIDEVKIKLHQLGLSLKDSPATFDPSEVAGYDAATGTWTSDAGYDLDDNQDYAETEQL
Description: X-ray crystallography (2.76 A); alphaCTD of symmetry-related complex; A/T-rich region -29 to -24; Crystallization: 0.1 M Bis-Tris pH 6.0, 0.2 M Li2SO4 (printed LiSO4), 16% PEG 3350, 2.5% ethylene glycol, 22 C; protein in 20 mM Tris-HCl pH 8, 100 mM K-glutamate, 10 mM MgCl2, 1 mM DTT. The conditions noted are these: protein: native; upstream fork (ds/ss junction).

B1: us-fork promoter fragment (mixed)
DNA 1: GCTTGACAAAAGTGTTAAATTGTGCTATACT
DNA 2: AGCACAATTTAACACTTTTGTCAAGC
With B1, the binding result was “binds”.
